Measured values taken from patent EP3964526A1 (Novartis AG, dated 2022).
Residue numbers refer to the chain shown, from its start.

B1: 567-max (scFv)
chain: EIVMTQSPSTLSASVGDRVIITCQADQSIYIWLSWYQQKPGKAPKLLIYKASTLESGVPSRFSGSGSGTQFTLTISSLQPDDFATYYCQNNAHYSTNGGTFGQGTKLTVLGGGGGSGGGGSGGGGSGGGGSEVQLVESGGGLVQPGGSLRLSCSVSGFSLSDYYMCWVRQAPGKGLEWVGCLDYFGSTDDASWAKGRFTISKDTSKNTVYLQMNSLRAEDTAVYYCARTDDSRGWGLNIWGQGTLVTVSS
B2: 578-max (scFv)
chain: EIVMTQSPSTLSASVGDRVIITCQASEIIHSWLAWYQQKPGKAPKLLIYLASTLASGVPSRFSGSGSGTQFTLTISSLQPDDFATYYCQNVYLASTNGANFGQGTKLTVLGGGGGSGGGGSGGGGSGGGGSEVQLVESGGGLVQPGGSLRLSCTASGFSLTDYYYMTWVRQAPGKGLEWVGFIDPDDDPYYATWAKGRFTISRDTSKNTVYLQMNSLRAEDTAVYYCAGGDHNSGWGLDIWGQGTLVTVSS
B3: 511-max (scFv)
chain: EIVMTQSPSTLSASVGDRVIITCQASQSINIWLSWYQQKPGKAPKLLIYRASTLASGVPSRFSGSGSGTEFTLTISSLQPDDFATYYCQANYAYSAGYGAAFGQGTKLTVLGGGGGSGGGGSGGGGSGGGGSEVQLVESGGGLVQPGGSLRLSCTVSGFSLNTYYMNWVRQAPGKGLEWVGIIAPDDTTYYASWAKSRSTISRDTSKNTVYLQMNSLRAEDTAVYYCARSGDTTAWGADIWGQGTLVTVSS
B4: 567-min (scFv)
chain: B1 chain with T69A, Q70E, S154A, V155A, G180S, K202R, T204N, V209L, R228K
B5: 509-min (scFv)
chain: EIVMTQSPSTLSASVGDRVIITCQASQNIRIWLSWYQQKPGKAPKLLIYKASTLESGVPSRFSGSGSGAEFTLTISSLQPDDFATYYCQNNAHYSTNGGTFGQGTKLTVLGGGGGSGGGGSGGGGSGGGGSEVQLVESGGGLVQPGGSLRLSCAASGFSLSSYYMCWVRQAPGKGLEWVSCLDYVGDTDYASWAKGRFTISRDNSKNTLYLQMNSLRAEDTAVYYCAKTDDSRGWGLNIWGQGTLVTVSS
B6: 578-min (scFv)
chain: B2 chain with T69A, Q70E, T154A, G181S, T205N, V210L, G229K

Target: VEGF (as used in the VEGFR competition ELISA)
Sequence (P15692 whole entry): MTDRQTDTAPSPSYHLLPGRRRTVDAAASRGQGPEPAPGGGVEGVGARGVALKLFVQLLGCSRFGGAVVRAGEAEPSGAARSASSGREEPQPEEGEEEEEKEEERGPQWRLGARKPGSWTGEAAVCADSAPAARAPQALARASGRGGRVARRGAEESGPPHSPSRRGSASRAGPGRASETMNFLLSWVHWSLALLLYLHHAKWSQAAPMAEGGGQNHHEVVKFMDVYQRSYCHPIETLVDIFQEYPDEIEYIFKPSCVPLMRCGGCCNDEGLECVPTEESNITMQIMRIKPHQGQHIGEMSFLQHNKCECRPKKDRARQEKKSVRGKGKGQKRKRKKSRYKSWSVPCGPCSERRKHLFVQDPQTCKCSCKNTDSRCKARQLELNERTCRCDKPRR
Experiment: competition ELISA against hVEGR1, EC50 ratio to reference Luc; second of two values in the cell

| Rel. activity hVEGR1 comp. ELISA (EC50Luc[nM]/EC50test[nM]) | Binder |
| --- | --- |
| 54.5 ratio | B1 |
| 51.6 ratio | B2 |

Target: VEGF (as used in the VEGFR competition ELISA)
Experiment: competition ELISA against hVEGR1, EC50 ratio to reference Luc; first of two values in the cell

| Rel. activity hVEGR1 comp. ELISA (EC50Luc[nM]/EC50test[nM]) | Binder |
| --- | --- |
| 15.7 ratio | B1 |
| 35.5 ratio | B2 |

Target: VEGF (as used in the VEGFR competition ELISA)
Experiment: competition ELISA against hVEGR1, EC50 ratio to reference Luc

| Rel. activity hVEGR1 comp. ELISA (EC50Luc[nM]/EC50test[nM]) | Binder |
| --- | --- |
| 8 ratio | B3 |
| 57 ratio | B4 |
| 2.9 ratio | B5 |
| 4.8 ratio | B6 |

Target: T1, recombinant human VEGF165 (PeproTech EC Ltd.) (human, UniProt P15692-4 27-191)
T1 construct: Amine-coupled to a CM4 sensor chip; also called hVEGF165
T1 sequence (P15692 other isoform, or with tags, fused parts or gaps limits assumed): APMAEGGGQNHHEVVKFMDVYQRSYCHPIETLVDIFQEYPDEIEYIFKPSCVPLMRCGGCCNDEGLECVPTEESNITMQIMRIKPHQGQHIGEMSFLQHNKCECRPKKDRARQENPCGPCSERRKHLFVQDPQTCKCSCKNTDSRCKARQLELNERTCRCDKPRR
Experiment: SPR BIAcore T100, hVEGF165 amine-coupled on CM4 chip, scFv as analyte

| Kd | koff | kon | Binder |
| --- | --- | --- | --- |
| 0.0667 nM | 4.4e-05 s⁻¹ | 659000 M⁻¹ s⁻¹ | B3 |
| 0.23 nM | 0.000461 s⁻¹ | 2.01e+06 M⁻¹ s⁻¹ | B4 |
| 0.188 nM | 0.000226 s⁻¹ | 1.2e+06 M⁻¹ s⁻¹ | B1 |
| 1.82 nM | 0.00114 s⁻¹ | 623000 M⁻¹ s⁻¹ | B5 |
| 9.01 nM | 0.0103 s⁻¹ | 1.14e+06 M⁻¹ s⁻¹ | B6 |
| 0.439 nM | 0.000307 s⁻¹ | 700000 M⁻¹ s⁻¹ | B2 |
